Test results reported in PMC7921410, “Structure of mammalian Mediator complex reveals Tail module architecture and interaction with a conserved core” (Nature Communications, 2021).

T1: MED23 (mouse (Mus musculus; endogenous in CH12), UniProt Q80YQ2 1-1367)
T1 construct: MED23, Mus musculus, endogenous lower Tail subunit of Mediator; Model building started from the X-ray structure of human MED23 (PDB 6H02); source: endogenous, CH12 mouse B lymphoma nuclear extract; immunopurified as part of Mediator (FLAG M2 agarose, FLAG peptide elution)
T1 sequence (looked up): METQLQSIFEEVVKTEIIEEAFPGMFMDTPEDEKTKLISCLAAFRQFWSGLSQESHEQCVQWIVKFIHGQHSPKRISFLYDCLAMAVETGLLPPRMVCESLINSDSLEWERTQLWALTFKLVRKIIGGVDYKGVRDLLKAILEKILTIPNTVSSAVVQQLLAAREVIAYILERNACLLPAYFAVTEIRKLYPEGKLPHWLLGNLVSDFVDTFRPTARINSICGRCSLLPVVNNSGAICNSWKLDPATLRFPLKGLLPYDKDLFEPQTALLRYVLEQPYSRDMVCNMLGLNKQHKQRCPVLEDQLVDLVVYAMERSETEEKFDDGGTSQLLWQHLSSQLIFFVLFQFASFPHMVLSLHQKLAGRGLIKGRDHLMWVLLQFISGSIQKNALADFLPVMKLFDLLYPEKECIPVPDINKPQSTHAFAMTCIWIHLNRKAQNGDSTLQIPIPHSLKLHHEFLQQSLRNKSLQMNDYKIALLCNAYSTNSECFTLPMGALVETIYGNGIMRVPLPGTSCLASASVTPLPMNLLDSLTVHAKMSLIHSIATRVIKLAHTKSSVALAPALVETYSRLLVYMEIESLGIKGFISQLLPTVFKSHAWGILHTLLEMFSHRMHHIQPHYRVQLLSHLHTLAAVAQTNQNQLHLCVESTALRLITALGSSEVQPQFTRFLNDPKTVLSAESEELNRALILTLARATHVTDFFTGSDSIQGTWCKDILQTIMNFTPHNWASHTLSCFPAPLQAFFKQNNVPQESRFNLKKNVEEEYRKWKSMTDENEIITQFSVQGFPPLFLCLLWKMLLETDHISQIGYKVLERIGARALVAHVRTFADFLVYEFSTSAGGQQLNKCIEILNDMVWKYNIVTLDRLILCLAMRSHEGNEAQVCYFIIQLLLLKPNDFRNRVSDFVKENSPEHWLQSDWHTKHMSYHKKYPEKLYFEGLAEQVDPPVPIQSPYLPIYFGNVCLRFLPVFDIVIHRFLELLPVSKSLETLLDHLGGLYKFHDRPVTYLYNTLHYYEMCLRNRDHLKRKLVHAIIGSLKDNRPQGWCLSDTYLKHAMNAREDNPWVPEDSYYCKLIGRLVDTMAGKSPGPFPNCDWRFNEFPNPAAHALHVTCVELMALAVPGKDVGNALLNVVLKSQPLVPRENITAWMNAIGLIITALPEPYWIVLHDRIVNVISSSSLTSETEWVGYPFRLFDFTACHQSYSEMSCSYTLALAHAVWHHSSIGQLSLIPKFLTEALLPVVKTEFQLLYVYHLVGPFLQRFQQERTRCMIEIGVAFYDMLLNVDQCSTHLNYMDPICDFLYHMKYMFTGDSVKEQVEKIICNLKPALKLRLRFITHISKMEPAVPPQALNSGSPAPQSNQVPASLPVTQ


Target: T1, MED23
Experiment: cryo-EM structure; endogenous mouse Mediator immunopurified from CH12 nuclear extract through 3×FLAG-MED19 or 3×FLAG-MED25; eluted in 50 mM HEPES pH 7.9, 100 mM KCl, 5% glycerol, 1 mM EDTA, 0.005% NP-40; map at 4.0 Å overall, focused refinement of the MED1 and knob/hook ends (6-10 Å)
Conditions: both partners purified

binding result | Binder
binds | MED15 (natural protein, mouse (Mus musculus; endogenous in CH12), UniProt Q924H2 1-789, looked up, MED15, Mus musculus, endogenous lower Tail subunit of Mediator; only the C-terminal portion (from residue 620) is seen in the map; source: endogenous, CH12 mouse B lymphoma nuclear extract; immunopurified as part of Mediator (FLAG M2 agarose, FLAG peptide elution)) MDVSGQETDWRSAAFRQKLVSQIEDAMRKAGVAHSKSSKDMESHVFLKAKTRDEYLSLVARLIIHFRDIHNKKSQASVSDPMNALQSLTGGPTPGAAGIGMPPRGPGQSLGGMGGLGAMGQPLPLSGQPPPGTSGMAPHGMAVVSTATPQTQLQLQQVALQQQQQQQQQQQFQQQQAALQQQQQQQQQQQQQQQFQAQQNAMQQQFQAVVQQQQLQQQQQQQHLIKLHHQSQQQQIQQQQLQRMAQLQLQQQQQQQQQQALQAQPPMQQPSMQQPQPPPSQALPQQLSQLHHPQHHQPPPQAQQSPIAQNQPPQIPPQSQSQPLVSQAQALPGPMLYAAQQQLKFVRAPMVVQQPQVQPQVQQVQPQVQPQAAVQAAQSAQMVAPGVQMIAEALAQGGMHVRARFPPTSTMSAGPSSSISLGGQPTTQVSQSSLTMLSSPSPGQQVQTPQSMPPPPQPSPQPGSQPNSNVSSGPAPSPSSFLPSPSPQPSQSPVTARTPQNFSVPSPGPLNTPVNPSSVMSPAGSSQAEEQQYLDKLKQLSKYIEPLRRMINKIDKNEDRKKDLSKMKSLLDILTDPSKRCPLKTLQKCEIALEKLKNDMAVPTPPPPPVLPTKQQDLCQPLLDAVLANIRSPVFNHSLYRTFVPAMMAIHGPPIVSPVVCSRKRRFEEDERQSIPNVLQGEVARLDPKFLVNLDPSHCSNNGTVHLICKLDDKDLPSVPPLELSVPADYPAQSPMWIDRQWQYDANPFLQSVHRCMTSRLLQLPDKHSVTALLNTWAQSIHQACLSAA
binds | MED25 (natural protein, mouse (Mus musculus; endogenous in CH12), UniProt Q8VCB2 1-745, looked up, MED25, Mus musculus, endogenous lower Tail subunit of Mediator; only the N-terminal von Willebrand domain (aa 15-216) is seen in the map; The 3×FLAG tag stands on MED25 only in the MED25-FLAG cell line; in the MED19-FLAG line MED25 is untagged; Images from the datasets were combined for the final map; also called MED25-FLAG; source: endogenous, CH12 mouse B lymphoma nuclear extract; …) MVPGSEGPARAGGLVADVVFVIEGTANLGPYFEELRKHYLLPAIEYFNGGPPAETDFGGDYGGTQYSLVVFNTVDCAPESYVQCHAPTSSAYEFVTWLDGIKFMGGGGESCSLIAEGLSTALQLFDDFKKMREQIGQTHRVCLLICNSPPYLLPAVESTTYSGCTTESLVQKIGERGIHFSIVSPRKLPALRLLFEKAAPPALLEPLQQPADVSQDPRHMVLVRGLVLPVGGSSTSGSLQTKQAVPLPPAPASAATLSAAPPQALPPVPPQYQVPGNLSAAQVAAQNAVEAAKSQKAGLGPRFSPINPLQQAAPGVGPPFSQAPAPPLAPVPPGAPKPPPASQPSLVSTVAPGPVLAAPAQPGAPSLAGTVTPGGVNGPSAAQLGGPALGGQQSVSNKLLAWSGVLEWQEKPKPASVDANTKLTRSLPCQVYVNHGENLKTEQWPQKLIMQLIPQQLLTTLGPLFRNSRMVQFHFTNKDLESLKGLYRIMGNGFAGCVHFPHTAPCEVRVLMLLYSSKKKIFMGLIPYDQSGFVNGIRQVITNHKQVQQQKLEQQRGMGAQQAPPVLGPILEEQARPPQNLLQLRAPQPQPQGAVGASAATGQPQPQGATQAPTGAPQGPPGAAPGPPPSGPILRPQNPGANPQLRSLLLNPAPPQTGVPPPQASLHHLQPPGAPTLLPPHQSMGQPQLGPQLLHPPPAQSWPTQLPQRAPLPGQMLLSGGPRGPVPQPGLQPSVMEDDILMDLI
